Laboratory results as given in article PMC6839005.

Columns and labels:
Assay in all cases: SPR
[1] = target: Human IgG1κ isotype control (human)
[2] = target: Recombinant HIV-1 gp120 SF162 (Clade B) (HIV-1 SF162 (Clade B))
[3] = target: Recombinant HIV-1 gp120 ZM53M.PB12 (HIV-1 ZM53M.PB12 (Clade C))

Substance	Kd [1] [nM]	fold increase in affinity compared to AH [2] [fold]	fold increase in affinity compared to AH [3] [fold]
Recombinant human Fc gamma receptor IA (FcγRI, CD64) (from UniProt P12314 16-374)	0.11	–	–
AvFc (lectibody: Avaren fused to the Fc region of human IgG1) (from UniProt Q9KWN0 47-160) (Fc fusion)	–	10	10
Recombinant human Fc gamma receptor IIIA (FcγRIIIa, CD16) (from UniProt P08637 17-254)	680	–	–
Neonatal Fc receptor (FcRn) (from UniProt P55899 24-365)	18	–	–
